PMC9968969

Test system: [H][C@@]12COP(=O)(O)O[C@@]1([H])[C@@H](O)[C@H](n1cnc3c(=O)[nH]c(N)nc31)O2
Test: purified protein
Conditions: […] MgCl2 in the reaction buffer catalytic site

PDE5A (Homo sapiens)
Km: 3.87 ± 0.12 µM
